# Target: human fibrinogen (human) (UniProt P02671)
# Assay: single colony ELISA, secreted scFv on coated fibrinogen (negative control antigen), anti-E-tag-HRP
# Sequence of human fibrinogen (human) (P02671 20-629 limits assumed, chain 1 of 3): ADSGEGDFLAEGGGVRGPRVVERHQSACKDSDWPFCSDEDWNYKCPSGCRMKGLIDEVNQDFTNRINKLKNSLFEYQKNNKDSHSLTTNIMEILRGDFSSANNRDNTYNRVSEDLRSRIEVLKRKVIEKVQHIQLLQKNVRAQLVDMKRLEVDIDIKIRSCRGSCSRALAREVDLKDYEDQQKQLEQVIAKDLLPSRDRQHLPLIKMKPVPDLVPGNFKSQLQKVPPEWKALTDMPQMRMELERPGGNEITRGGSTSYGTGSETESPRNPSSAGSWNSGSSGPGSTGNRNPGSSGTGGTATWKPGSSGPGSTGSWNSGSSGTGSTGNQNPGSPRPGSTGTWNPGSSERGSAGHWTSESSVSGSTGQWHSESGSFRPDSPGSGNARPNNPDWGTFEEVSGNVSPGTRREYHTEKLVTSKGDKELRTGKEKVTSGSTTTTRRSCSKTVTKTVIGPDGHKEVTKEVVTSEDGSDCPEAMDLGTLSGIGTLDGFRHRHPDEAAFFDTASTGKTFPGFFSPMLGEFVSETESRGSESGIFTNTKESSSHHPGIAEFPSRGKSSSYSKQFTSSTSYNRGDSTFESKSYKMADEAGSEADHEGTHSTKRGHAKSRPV
# Sequence of human fibrinogen (human) (P02675 31-491 limits assumed, chain 2 of 3, further chain): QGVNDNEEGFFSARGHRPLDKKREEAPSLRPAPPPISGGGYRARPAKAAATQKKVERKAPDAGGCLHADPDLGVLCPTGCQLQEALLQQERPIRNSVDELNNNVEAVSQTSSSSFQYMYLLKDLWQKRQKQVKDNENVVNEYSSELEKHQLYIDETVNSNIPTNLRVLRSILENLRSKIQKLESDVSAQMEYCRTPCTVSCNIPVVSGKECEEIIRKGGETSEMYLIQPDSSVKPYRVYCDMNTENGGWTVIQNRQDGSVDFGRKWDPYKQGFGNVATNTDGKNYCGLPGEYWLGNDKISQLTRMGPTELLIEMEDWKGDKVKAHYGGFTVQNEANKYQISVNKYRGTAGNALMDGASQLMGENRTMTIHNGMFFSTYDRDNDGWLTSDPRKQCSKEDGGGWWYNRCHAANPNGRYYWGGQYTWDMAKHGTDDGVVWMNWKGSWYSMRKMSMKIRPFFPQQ
# Sequence of human fibrinogen (human) (P02679 other isoform, or with tags, fused parts or gaps limits assumed, chain 3 of 3, further chain): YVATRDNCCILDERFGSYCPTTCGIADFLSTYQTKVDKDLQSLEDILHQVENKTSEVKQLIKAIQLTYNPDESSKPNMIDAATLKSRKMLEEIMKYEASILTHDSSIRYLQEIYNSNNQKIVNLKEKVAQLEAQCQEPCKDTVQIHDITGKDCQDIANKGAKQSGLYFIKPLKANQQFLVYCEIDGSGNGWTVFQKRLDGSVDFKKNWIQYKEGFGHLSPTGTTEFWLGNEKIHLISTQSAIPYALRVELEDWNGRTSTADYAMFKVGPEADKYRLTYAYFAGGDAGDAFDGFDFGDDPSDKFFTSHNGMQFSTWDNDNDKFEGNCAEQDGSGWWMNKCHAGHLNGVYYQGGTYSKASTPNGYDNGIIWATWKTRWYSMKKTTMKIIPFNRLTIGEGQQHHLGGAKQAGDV
row,Binder,OD450 Fibrinogen
1,phage-displayed 3D5 scFv (scFv) scFv: DIQMTQSPSSLSASVGDRVTITCRASQDVSNNVAWYQQKPGKAPKLLIFWSPWLYSGVPSRFSGSGSGTDFTLTISSLQPEDFATYYCQQGWDSPVTFGQGTKVEIKRGGGGSGGGGSGGGGSEVQLVESGGGLVQPGGSLRLSCAASGFTISDFGIHWVRQAPGKGLEWVASIWPSGGYTYYADSVKGRFTISADTSKNTAYLQMNSLRAEDTAVYYCARSWFYSWYDYWGQGTLVTVSS,0.0022 OD450
2,"scFv clone 7A3 (scFv, V domains shown) VH: EVQLVESGGGLVQPGGSLRLSCAASGFTINDWSIHWVRQAPGKGLEWVAYIGPFWGSTFYADSVKGRFTISADTSKNTAYLQMNSLRAEDTAVYYCARGYFGFDYWGQGTLVTVSS VL: DIQMTQSPSSLSASVGDRVTITCRASQDVGGWVAWYQQKPGKAPKLLISSPRSLYSGVPSRFSGSGSGTDFTLTISSLQPEDFATYYCQQYFSSPFTFGQGTKVEIKR",0.0209 OD450
3,"scFv clone 8F2 (scFv, V domains shown) VH: EVQLVESGGGLVQPGGSLRLSCAASGFTINNYGIHWVRQAPGKGLEWVAGIWPYWGYTYYADSVKGRFTISADTSKNTAYLQMNSLRAEDTAVYYCARFDSNSYSSYSDGFMDYWGQGTLVTVSS VL: DIQMTQSPSSLSASVGDRVTITCRASQDVDNSVAWYQQKPGKAPKLLISSARSLYSGVPSRFSGSGSGTDFTLTISSLQPEDFATYYCQQYYNYPITFGQGTKVEIKR",0.0366 OD450
4,"scFv clone 3C2 (scFv, V domains shown) VH: EVQLVESGGGLVQPGGSLRLSCAASGFTIGNSSIHWVRQAPGKGLEWVAGIWPYWGSTYYADSVKGRFTISADTSKNTAYLQMNSLRAEDTAVYYCARFGINNDGFMDYWGQGTLVTVSS VL: DIQMTQSPSSLSASVGDRVTITCRASQDVSGWVAWYQQKPGKAPKLLISSTGSLYSGVPSRFSGSGSGTDFTLTISSLQPEDFATYYCQQYYDFPITFGQGTKVEIKR",0.0117 OD450

# Source: patent US20200157519A1
